Source: patent US20250051427A1, “METHODS OF USING AN ANTI-AMYLOID BETA PROTOFIBRIL ANTIBODY AND ANTI-TAU ANTIBODY” (published 2025)

Columns and labels:
[1] = target: T1, MTBR-tau (microtubule binding region tau) in CSF (Homo sapiens); experiment: E2814-bound and free MTBR-tau in CSF after a single E2814 infusion of 3 mg/kg
[2] = target: T1, MTBR-tau (microtubule binding region …); experiment: E2814-bound and free MTBR-tau in CSF after a single E2814 infusion of 10 mg/kg
[3] = target: T1, MTBR-tau (microtubule binding region …); experiment: E2814-bound and free MTBR-tau in CSF after a single E2814 infusion of 30 mg/kg

B1: E2814 (antibody, V domains shown)
VH: EVQLLESGGGLVQPGGSLRLSCAASGYTFTTYWITWVRQAPGKGLEWVSDIYPGSSISNYNEKFKSRFTISVDNSKNTLYLQMNSLRAEDTAVYYCAREDGYDAWFAYWGQGTLVTVSS
VL: DIQMTQSPSSLSASVGDRVTITCRSSQSILHSNGNTYLEWYQQKPGKAPKLLISKVSNRFSGVPSRFSGSGSGTDFTLTISSLQPEDFATYYCFQGSHVPFTFGQGTKLEIKR
target engagement (TE), fraction (%) of bound MTBR-tau relative to total MTBR-tau [1]: ~26%
target engagement (TE), fraction (%) of bound MTBR-tau relative to total MTBR-tau [2]: ~45%
target engagement (TE), fraction (%) of bound MTBR-tau relative to total MTBR-tau [3]: ~60%
